Reference: patent publication US20180155451A1 (published 2018)

T1: FcγRIIb (human, UniProt P31994 43-217)
T1 construct: extracellular domain; also called FcgRIIb; 2b
T1 sequence (looked up): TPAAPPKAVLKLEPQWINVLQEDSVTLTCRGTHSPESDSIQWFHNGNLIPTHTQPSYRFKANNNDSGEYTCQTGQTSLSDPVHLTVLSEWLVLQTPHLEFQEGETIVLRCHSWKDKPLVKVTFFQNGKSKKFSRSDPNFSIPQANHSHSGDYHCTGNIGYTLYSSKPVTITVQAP

B1: GpH7-B3 variant Y300_01G/GpL16-k0 (antibody, human IgG1, kappa)
heavy: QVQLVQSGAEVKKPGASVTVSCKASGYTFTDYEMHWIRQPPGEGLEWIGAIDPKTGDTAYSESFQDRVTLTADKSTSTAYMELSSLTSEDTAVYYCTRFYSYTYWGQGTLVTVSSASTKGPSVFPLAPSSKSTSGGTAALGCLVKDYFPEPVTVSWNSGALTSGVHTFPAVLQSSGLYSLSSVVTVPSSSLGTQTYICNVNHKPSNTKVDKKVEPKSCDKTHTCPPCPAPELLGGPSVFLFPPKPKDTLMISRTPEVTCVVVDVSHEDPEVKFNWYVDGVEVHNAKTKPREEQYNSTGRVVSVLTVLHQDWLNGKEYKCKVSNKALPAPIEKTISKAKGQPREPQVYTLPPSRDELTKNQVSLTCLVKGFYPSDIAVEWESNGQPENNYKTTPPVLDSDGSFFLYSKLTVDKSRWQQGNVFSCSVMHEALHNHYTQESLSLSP
light: DIVMTQSPLSLPVTPGEPASISCQASESLVHSNRNTYLHWYLQKPGQSPQLLIYKVSNRFSGVPDRFSGSGSGTDFTLKISRVEAEDVGVYYCSQNTHVPPTFGQGTKVEIERTVAAPSVFIFPPSDEQLKSGTASVVCLLNNFYPREAKVQWKVDNALQSGNSQESVTEQDSKDSTYSLSSTLTLSKADYEKHKVYACEVTHQGLSSPVTKSFNRGEC
notes: homodimerized IgG1; mutation in both H chains; also called Ho Ab
B2: GpH7-B3 variant Y300_03V/GpL16-k0 (antibody, human IgG1, kappa)
heavy: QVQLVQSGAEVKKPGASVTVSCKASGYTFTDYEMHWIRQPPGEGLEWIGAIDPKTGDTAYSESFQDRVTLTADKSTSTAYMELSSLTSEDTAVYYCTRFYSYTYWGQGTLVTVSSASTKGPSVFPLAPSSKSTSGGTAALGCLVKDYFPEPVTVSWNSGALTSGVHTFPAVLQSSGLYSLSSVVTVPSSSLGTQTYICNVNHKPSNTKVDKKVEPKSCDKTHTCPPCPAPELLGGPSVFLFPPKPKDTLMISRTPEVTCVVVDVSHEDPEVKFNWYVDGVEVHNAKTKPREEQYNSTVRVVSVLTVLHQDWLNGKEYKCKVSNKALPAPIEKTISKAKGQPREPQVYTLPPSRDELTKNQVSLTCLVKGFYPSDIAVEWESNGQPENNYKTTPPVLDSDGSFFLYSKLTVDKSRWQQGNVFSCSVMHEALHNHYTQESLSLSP
light: B1 light
notes: as for B1
B3: GpH7-B3 variant Y296_12R/GpL16-k0 (antibody, human IgG1, kappa)
heavy: not shown
light: B1 light
notes: as for B1
B4: GpH7-B3 variant T335_20W/GpL16-k0 (antibody, human IgG1, kappa)
heavy: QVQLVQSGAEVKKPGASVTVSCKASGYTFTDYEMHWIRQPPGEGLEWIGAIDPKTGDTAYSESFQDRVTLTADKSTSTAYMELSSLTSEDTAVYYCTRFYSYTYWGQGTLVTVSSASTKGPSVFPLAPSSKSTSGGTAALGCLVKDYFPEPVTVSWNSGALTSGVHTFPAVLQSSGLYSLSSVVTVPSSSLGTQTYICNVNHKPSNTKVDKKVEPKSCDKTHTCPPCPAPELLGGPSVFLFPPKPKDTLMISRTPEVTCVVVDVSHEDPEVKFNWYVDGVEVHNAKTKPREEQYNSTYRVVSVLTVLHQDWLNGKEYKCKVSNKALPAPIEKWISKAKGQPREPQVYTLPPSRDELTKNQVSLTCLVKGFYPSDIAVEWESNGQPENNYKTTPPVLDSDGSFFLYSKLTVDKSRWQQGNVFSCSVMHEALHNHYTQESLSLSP
light: B1 light
notes: as for B1
B5: GpH7-B3 variant Y296_13S/GpL16-k0 (antibody, human IgG1, kappa)
heavy: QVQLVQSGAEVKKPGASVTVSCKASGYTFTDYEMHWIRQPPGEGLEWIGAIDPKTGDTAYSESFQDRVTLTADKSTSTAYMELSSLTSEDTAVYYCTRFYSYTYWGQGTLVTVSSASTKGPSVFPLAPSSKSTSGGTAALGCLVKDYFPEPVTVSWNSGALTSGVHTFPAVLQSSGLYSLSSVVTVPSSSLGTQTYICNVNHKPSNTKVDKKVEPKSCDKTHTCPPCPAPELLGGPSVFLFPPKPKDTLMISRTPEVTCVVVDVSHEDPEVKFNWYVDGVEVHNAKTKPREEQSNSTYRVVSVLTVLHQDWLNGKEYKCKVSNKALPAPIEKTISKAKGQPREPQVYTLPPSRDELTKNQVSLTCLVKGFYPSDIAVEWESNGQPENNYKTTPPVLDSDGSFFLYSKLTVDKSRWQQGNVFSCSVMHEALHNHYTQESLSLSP
light: B1 light
notes: as for B1
B6: GpH7-B3 variant T335_16H/GpL16-k0 (antibody, human IgG1, kappa)
heavy: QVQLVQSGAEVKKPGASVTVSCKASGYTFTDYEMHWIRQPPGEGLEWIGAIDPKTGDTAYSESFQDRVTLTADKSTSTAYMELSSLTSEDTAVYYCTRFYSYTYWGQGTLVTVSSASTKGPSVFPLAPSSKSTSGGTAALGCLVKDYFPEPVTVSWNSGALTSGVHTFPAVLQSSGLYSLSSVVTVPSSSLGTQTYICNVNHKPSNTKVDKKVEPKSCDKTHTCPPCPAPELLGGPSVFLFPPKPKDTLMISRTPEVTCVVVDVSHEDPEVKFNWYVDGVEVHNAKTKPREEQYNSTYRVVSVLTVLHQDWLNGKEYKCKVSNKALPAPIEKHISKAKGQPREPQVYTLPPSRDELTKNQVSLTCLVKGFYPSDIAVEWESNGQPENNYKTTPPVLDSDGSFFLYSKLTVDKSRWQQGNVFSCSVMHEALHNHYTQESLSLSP
light: B1 light
notes: as for B1
B7: GpH7-B3 variant Y296_16H/GpL16-k0 (antibody, human IgG1, kappa)
heavy: not shown
light: B1 light
notes: as for B1
B8: GpH7-B3 variant Y296_18N/GpL16-k0 (antibody, human IgG1, kappa)
heavy: not shown
light: B1 light
notes: as for B1
B9: GpH7-B3 variant Y296_19Q/GpL16-k0 (antibody, human IgG1, kappa)
heavy: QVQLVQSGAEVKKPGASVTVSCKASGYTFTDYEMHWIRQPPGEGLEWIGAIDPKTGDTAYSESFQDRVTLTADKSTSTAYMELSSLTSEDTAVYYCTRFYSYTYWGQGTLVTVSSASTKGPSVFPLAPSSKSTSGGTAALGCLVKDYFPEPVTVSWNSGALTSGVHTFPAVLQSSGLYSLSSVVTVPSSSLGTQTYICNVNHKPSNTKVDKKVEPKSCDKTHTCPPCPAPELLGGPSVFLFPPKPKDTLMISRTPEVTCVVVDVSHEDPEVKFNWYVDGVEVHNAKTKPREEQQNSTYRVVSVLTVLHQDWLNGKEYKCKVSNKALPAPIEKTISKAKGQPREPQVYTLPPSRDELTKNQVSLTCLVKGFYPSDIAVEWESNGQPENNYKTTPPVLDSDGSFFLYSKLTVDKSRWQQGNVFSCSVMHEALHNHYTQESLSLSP
light: B1 light
notes: as for B1
B10: GpH7-B3 variant Y296_11K/GpL16-k0 (antibody, human IgG1, kappa)
heavy: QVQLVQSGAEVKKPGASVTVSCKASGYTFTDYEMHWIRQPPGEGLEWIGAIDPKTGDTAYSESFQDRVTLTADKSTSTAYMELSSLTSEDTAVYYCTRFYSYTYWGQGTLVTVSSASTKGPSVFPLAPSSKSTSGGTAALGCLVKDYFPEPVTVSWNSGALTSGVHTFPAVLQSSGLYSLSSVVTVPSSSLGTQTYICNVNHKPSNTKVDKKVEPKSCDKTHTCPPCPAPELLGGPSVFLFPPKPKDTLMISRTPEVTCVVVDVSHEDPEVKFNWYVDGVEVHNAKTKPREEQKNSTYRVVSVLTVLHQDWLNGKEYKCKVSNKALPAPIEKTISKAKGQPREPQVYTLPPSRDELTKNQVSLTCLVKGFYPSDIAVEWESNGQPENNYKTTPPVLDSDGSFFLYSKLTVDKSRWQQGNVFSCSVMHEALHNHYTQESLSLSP
light: B1 light
notes: as for B1
B11: GpH7-B3 variant Y296_10E/GpL16-k0 (antibody, human IgG1, kappa)
heavy: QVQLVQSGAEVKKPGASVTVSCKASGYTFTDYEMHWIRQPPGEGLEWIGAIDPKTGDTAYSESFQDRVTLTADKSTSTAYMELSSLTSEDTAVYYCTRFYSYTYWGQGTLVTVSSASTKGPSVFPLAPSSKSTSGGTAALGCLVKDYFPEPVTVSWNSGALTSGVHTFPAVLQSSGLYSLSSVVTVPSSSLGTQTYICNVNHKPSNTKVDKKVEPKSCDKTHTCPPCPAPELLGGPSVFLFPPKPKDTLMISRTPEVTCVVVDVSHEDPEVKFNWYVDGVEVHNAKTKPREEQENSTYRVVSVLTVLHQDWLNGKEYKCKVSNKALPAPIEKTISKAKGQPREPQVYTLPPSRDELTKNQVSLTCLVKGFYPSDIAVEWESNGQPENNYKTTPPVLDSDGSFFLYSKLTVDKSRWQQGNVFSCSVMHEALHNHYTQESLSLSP
light: B1 light
notes: as for B1
B12: GpH7-B3 variant Y296_14T/GpL16-k0 (antibody, human IgG1, kappa)
heavy: not shown
light: B1 light
notes: as for B1
B13: GpH7-B3 variant T335_19Q/GpL16-k0 (antibody, human IgG1, kappa)
heavy: not shown
light: B1 light
notes: as for B1
B14: GpH7-B3 variant T335_18N/GpL16-k0 (antibody, human IgG1, kappa)
heavy: not shown
light: B1 light
notes: as for B1
B15: GpH7-B3 variant Y296_20W/GpL16-k0 (antibody, human IgG1, kappa)
heavy: not shown
light: B1 light
notes: as for B1
B16: GpH7-B3 variant Y296_06M/GpL16-k0 (antibody, human IgG1, kappa)
heavy: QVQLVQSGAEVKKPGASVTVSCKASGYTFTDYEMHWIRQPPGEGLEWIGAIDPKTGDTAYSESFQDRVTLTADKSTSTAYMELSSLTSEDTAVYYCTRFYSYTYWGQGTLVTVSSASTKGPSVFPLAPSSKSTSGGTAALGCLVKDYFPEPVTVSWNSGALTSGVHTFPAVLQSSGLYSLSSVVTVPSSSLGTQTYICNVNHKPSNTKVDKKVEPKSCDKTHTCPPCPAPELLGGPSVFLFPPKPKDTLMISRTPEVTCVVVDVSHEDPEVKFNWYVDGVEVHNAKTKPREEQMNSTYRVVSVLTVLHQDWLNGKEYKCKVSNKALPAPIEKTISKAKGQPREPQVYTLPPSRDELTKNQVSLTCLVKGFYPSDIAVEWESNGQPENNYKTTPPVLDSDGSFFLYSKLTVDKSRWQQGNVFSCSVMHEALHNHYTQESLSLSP
light: B1 light
notes: as for B1
B17: GpH7-B3 variant Y300_02A/GpL16-k0 (antibody, human IgG1, kappa)
heavy: not shown
light: B1 light
notes: as for B1
B18: GpH7-A5/GpH7-B3 variant S324_16H/GpL16-k0 (antibody, human IgG1, kappa)
heavy 1: not shown
heavy 2: not shown
light: B1 light
notes: heterodimerized IgG1, one H chain mutated; also called He Ab
B19: GpH7-A5/GpH7-B3 variant Y300_13S/GpL16-k0 (antibody, human IgG1, kappa)
heavy 1: not shown
heavy 2: not shown
light: B1 light
notes: as for B18
B20: GpH7-A5/GpH7-B3 variant Y300_11K/GpL16-k0 (antibody, human IgG1, kappa)
heavy 1: not shown
heavy 2: not shown
light: B1 light
notes: as for B18
B21: GpH7-A5/GpH7-B3 variant Y300_07I/GpL16-k0 (antibody, human IgG1, kappa)
heavy 1: not shown
heavy 2: not shown
light: B1 light
notes: as for B18
B22: GpH7-A5/GpH7-B3 variant Y300_14T/GpL16-k0 (antibody, human IgG1, kappa)
heavy 1: not shown
heavy 2: not shown
light: B1 light
notes: as for B18
B23: GpH7-A5/GpH7-B3 variant Y300_09D/GpL16-k0 (antibody, human IgG1, kappa)
heavy 1: not shown
heavy 2: not shown
light: B1 light
notes: as for B18
B24: GpH7-A5/GpH7-B3 variant Y300_20W/GpL16-k0 (antibody, human IgG1, kappa)
heavy 1: not shown
heavy 2: not shown
light: B1 light
notes: as for B18
B25: GpH7-A5/GpH7-B3 variant Y300_16H/GpL16-k0 (antibody, human IgG1, kappa)
heavy 1: not shown
heavy 2: not shown
light: B1 light
notes: as for B18
B26: GpH7-A5/GpH7-B3 variant Y300_05P/GpL16-k0 (antibody, human IgG1, kappa)
heavy 1: not shown
heavy 2: not shown
light: B1 light
notes: as for B18
B27: GpH7-A5/GpH7-B3 variant Y300_08L/GpL16-k0 (antibody, human IgG1, kappa)
heavy 1: not shown
heavy 2: not shown
light: B1 light
notes: as for B18
B28: GpH7-A5/GpH7-B3 variant S324_19Q/GpL16-k0 (antibody, human IgG1, kappa)
heavy 1: not shown
heavy 2: not shown
light: B1 light
notes: as for B18
B29: GpH7-A5/GpH7-B3 variant Y300_03V/GpL16-k0 (antibody, human IgG1, kappa)
heavy 1: not shown
heavy 2: not shown
light: B1 light
notes: as for B18
B30: GpH7-A5/GpH7-B3 variant S324_18N/GpL16-k0 (antibody, human IgG1, kappa)
heavy 1: not shown
heavy 2: not shown
light: B1 light
notes: as for B18
B31: GpH7-A5/GpH7-B3 variant Y300_12R/GpL16-k0 (antibody, human IgG1, kappa)
heavy 1: not shown
heavy 2: not shown
light: B1 light
notes: as for B18
B32: GpH7-A5/GpH7-B3 variant Y300_06M/GpL16-k0 (antibody, human IgG1, kappa)
heavy 1: not shown
heavy 2: not shown
light: B1 light
notes: as for B18
B33: GpH7-A5/GpH7-B3 variant Y300_02A/GpL16-k0 (antibody, human IgG1, kappa)
heavy 1: not shown
heavy 2: not shown
light: B1 light
notes: as for B18
B34: GpH7-A5/GpH7-B3 variant S324_20W/GpL16-k0 (antibody, human IgG1, kappa)
heavy 1: not shown
heavy 2: not shown
light: B1 light
notes: as for B18
B35: GpH7-A5/GpH7-B3 variant L328_11K/GpL16-k0 (antibody, human IgG1, kappa)
heavy 1: not shown
heavy 2: not shown
light: B1 light
notes: He Ab: heterodimerized anti-glypican-3 IgG1, substitution in one H chain only; also called He Ab L328K
B36: GpH7-A5/GpH7-B3 variant L328_12R/GpL16-k0 (antibody, human IgG1, kappa)
heavy 1: not shown
heavy 2: not shown
light: B1 light
notes: He Ab: heterodimerized anti-glypican-3 IgG1, substitution in one H chain only; also called He Ab L328R

target: T2, FcγRIa (human, UniProt P12314 16-292); test: SPR (Biacore), antibody captured on antigen peptide chip, FcγRIa as analyte; relative binding amount
T2 construct: extracellular domain; also called FcgRI; CD64; not shown: C-terminal His tag
Protocol: (§1) Analysis of interaction between objective antibody and the FcγR was carried out using Biacore T100 (GE Healthcare). HBS-EP+ (GE Healthcare) was used as the running buffer, and the measurement temperature was set to 25° C. Chips produced by immobilizing the antigen peptide by the amine coupling method to a Series S Sencor Chip CM5 (GE Healthcare), or alternatively, chips produced by allowing preliminarily biotinylated antigen peptides to interact with and immobilize onto a Series S Sensor Chip SA (certified) (GE Healthcare) were used. Antibodies of interest were captured onto an antigen peptide-immobilized chip, and allowed to interact to each FcγR diluted with running buffer. To regenerate and repeatedly use the chip, the antibodies captured on the chip were washed off by reacting 10 mM glycine-HCl, pH 1.5.
T2 sequence (P12314 16-292): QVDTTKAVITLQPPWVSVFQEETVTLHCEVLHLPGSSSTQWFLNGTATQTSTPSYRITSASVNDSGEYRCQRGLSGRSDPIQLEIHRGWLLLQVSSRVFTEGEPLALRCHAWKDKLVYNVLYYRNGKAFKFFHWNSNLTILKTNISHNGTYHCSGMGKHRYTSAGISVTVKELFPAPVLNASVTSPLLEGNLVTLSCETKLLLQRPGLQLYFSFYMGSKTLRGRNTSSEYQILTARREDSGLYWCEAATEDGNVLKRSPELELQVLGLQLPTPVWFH

Row | Ho/Con_1a | Binder
1 | 109 % of control (GpH7-B3/GpL16-k0 = 100) | B1
2 | 112 % of control (GpH7-B3/GpL16-k0 = 100) | B2
3 | 103 % of control (GpH7-B3/GpL16-k0 = 100) | B3
4 | 104 % of control (GpH7-B3/GpL16-k0 = 100) | B4
5 | 105 % of control (GpH7-B3/GpL16-k0 = 100) | B5
6 | 104 % of control (GpH7-B3/GpL16-k0 = 100) | B6
7 | 105 % of control (GpH7-B3/GpL16-k0 = 100) | B7
8 | 105 % of control (GpH7-B3/GpL16-k0 = 100) | B8
9 | 104 % of control (GpH7-B3/GpL16-k0 = 100) | B9
10 | 102 % of control (GpH7-B3/GpL16-k0 = 100) | B10
11 | 106 % of control (GpH7-B3/GpL16-k0 = 100) | B11
12 | 105 % of control (GpH7-B3/GpL16-k0 = 100) | B12
13 | 105 % of control (GpH7-B3/GpL16-k0 = 100) | B13
14 | 102 % of control (GpH7-B3/GpL16-k0 = 100) | B14
15 | 106 % of control (GpH7-B3/GpL16-k0 = 100) | B15
16 | 104 % of control (GpH7-B3/GpL16-k0 = 100) | B16
17 | 110 % of control (GpH7-B3/GpL16-k0 = 100) | B17

target: T3, FcγRIa (human, UniProt P12314 16-292); test: SPR (Biacore); He/Con_1a (FcgRIa) divided by He/Con_2b (FcgRIIb)
T3 construct: extracellular domain; also called FcgRI; FcgRIa
Protocol: (§2) The heterodimerized antibodies He Abs in which one of the H chains was introduced with an alteration were assayed for their binding activities to each activating FcγR and inhibitory FcγR according to the method described in Example 4. […] The activating FcγRs in FIGS. 26, 27, 28, and 29 are FcγRIa, FcγRIIa (R), FcγRIIa (H), and FcγRIIIa, respectively.
T3 sequence (P12314 16-292): as above
as §1

Row | Ia/IIb He_1a/2b | Binder
18 | 1.35 | B18
19 | 2.06 | B19
20 | 2.07 | B20
21 | 1.45 | B21
22 | 2.01 | B22
23 | 1.21 | B23
24 | 1.34 | B24
25 | 1.27 | B25
26 | 8.22 | B26
27 | 1.54 | B27
28 | 1.68 | B28
29 | 1.58 | B29
30 | 1.42 | B30
31 | 2.54 | B31
32 | 1.33 | B32
33 | 1.62 | B33
34 | 1.31 | B34

target: T4, FcγRIa extracellular domain with C-terminal His tag (human, UniProt P12314 16-292); test: SPR (Biacore); He/Con_1a divided by He/Con_2b (FcγRIIb)
T4 construct: extracellular domain; Soluble receptor expressed in FreeStyle293 cells; analyte in Biacore; also called FcgRI; FcgRIa; not shown: His tag at the C terminus
T4 sequence (P12314 16-292): as above
Protocol: as §2, §1

Row | He_1a/2b (Ia/IIb) | Binder
35 | 10.5 | B35
36 | 8.51 | B36

target: T1, FcγRIIb; test: SPR (Biacore), relative to GpH7-A5/GpH7-B3/GpL16-k0 = 100

Row | He/Con_2b (IIb binding) | Binder
37 | 83.5 relative (control = 100) | B18
38 | 53.9 relative (control = 100) | B19
39 | 51.6 relative (control = 100) | B20
40 | 74.5 relative (control = 100) | B21
41 | 55.6 relative (control = 100) | B22
42 | 93.2 relative (control = 100) | B23
43 | 84.1 relative (control = 100) | B24
44 | 87 relative (control = 100) | B25
45 | 7.3 relative (control = 100) | B26
46 | 73.6 relative (control = 100) | B27
47 | 66.8 relative (control = 100) | B28
48 | 73.9 relative (control = 100) | B29
49 | 81.1 relative (control = 100) | B30
50 | 41.2 relative (control = 100) | B31
51 | 84.3 relative (control = 100) | B32
52 | 69.2 relative (control = 100) | B33
53 | 87.5 relative (control = 100) | B34

target: T3, FcγRIa; test: as above

Row | He/Con_1a (Ia binding) | Binder
54 | 113 relative (control = 100) | B18
55 | 111 relative (control = 100) | B19
56 | 107 relative (control = 100) | B20
57 | 108 relative (control = 100) | B21
58 | 112 relative (control = 100) | B22
59 | 112 relative (control = 100) | B23
60 | 112 relative (control = 100) | B24
61 | 111 relative (control = 100) | B25
62 | 60.2 relative (control = 100) | B26
63 | 113 relative (control = 100) | B27
64 | 112 relative (control = 100) | B28
65 | 117 relative (control = 100) | B29
66 | 116 relative (control = 100) | B30
67 | 105 relative (control = 100) | B31
68 | 112 relative (control = 100) | B32
69 | 112 relative (control = 100) | B33
70 | 114 relative (control = 100) | B34

target: T4, FcγRIa extracellular domain with …; test: SPR (Biacore), antibody captured on antigen peptide chip, FcγR as analyte; binding relative to GpH7-A5/GpH7-B3/GpL16-k0 = 100
Protocol: as §2, §1

Row | He/Con_1a (Ia binding) | Binder
71 | 79.2 % of control (control = 100) | B35
72 | 78.6 % of control (control = 100) | B36
